Reference: paper PMC6779754, “Brain-specific homeobox Bsx specifies identity of pineal gland between serially homologous photoreceptive organs in zebrafish”

Assays:
[1] = molecular target: T1, GST-Bsx (zebrafish, UniProt Q6R3Q6 1-227); test: EMSA; EMSA: DIG Gel Shift Kit (Roche) per manufacturer, 2.0 pmol GST-Bsx with 32 fmol DIG-oligonucleotide or 8 fmol DIG-147bp probe; buffer, pH and temperature not stated; details: protein: recombinant, tags: N-terminal GST (pGEX-5X-1), label: DIG, annealed synthetic oligonucleotides
[2] = molecular target: T1, GST-Bsx; test: competition; competitor vs BSXRE probe (EMSA); EMSA: DIG Gel Shift Kit (Roche) per manufacturer, 2.0 pmol GST-Bsx with 32 fmol DIG-oligonucleotide or 8 fmol DIG-147bp probe; buffer, pH and temperature not stated; details: protein: recombinant; tags: N-terminal GST (pGEX-5X-1); annealed synthetic oligonucleotides

T1 sequence (Q6R3Q6 whole entry): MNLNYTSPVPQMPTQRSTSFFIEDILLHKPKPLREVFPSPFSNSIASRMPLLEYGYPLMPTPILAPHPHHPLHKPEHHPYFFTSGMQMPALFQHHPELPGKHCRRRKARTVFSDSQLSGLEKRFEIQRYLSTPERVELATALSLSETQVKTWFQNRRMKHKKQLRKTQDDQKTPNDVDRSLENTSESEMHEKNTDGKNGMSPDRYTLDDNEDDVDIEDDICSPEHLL

| Binder | binding result [2] | further results |
| --- | --- | --- |
| BSXRE probe (dsDNA) DNA 1: GAATTCGATGGCGCTAATCGGTGGGGGATCAAGCTT DNA 2: AAGCTTCATCCCCCACCGATTAGCGCCATCGAATTC |  | binding result ([1]; 36-mer): binds |
| BSXRE-mut probe (dsDNA) DNA 1: GAATTCGATGGCGCTACGATGTGGGGGATCAAGCTT DNA 2: AAGCTTCATCCCCCACATCGTAGCGCCATCGAATTC |  | binding result [1]: no binding |
| D3 competitor (dsDNA) DNA 1: GAATTCGATAGATTTAATATTTCAGTCATCAAGCTT DNA 2: AAGCTTGATGACTGAAATATTAAATCTATCGAATTC | binds |  |
| D4 competitor (dsDNA) DNA 1: GAATTCGATTCTGATAATCTGTGTGTGATCAAGCTT DNA 2: AAGCTTGATCACACACAGATTATCAGAATCGAATTC | binds |  |
| P3 competitor (dsDNA) DNA 1: GAATTCGATCTCCTGTAATCTGCCTAAATCAAGCTT DNA 2: AAGCTTGATTTAGGCAGATTACAGGAGATCGAATTC | binds |  |
| D2 competitor (dsDNA) DNA 1: GAATTCGATTGTTTTTAATAAAGATTTATCAAGCTT DNA 2: AAGCTTGATAAATCTTTATTAAAAACAATCGAATTC | binds |  |
